Reference: patent US20260053904A1 (BIOATLA, published 2026)

Key:
rat EpCAM = biological target: T1, rat EpCAM (rat, UniProt O55159 24-266, limits assumed); test: hybridoma screening, ELISA
T1 sequence (looked up): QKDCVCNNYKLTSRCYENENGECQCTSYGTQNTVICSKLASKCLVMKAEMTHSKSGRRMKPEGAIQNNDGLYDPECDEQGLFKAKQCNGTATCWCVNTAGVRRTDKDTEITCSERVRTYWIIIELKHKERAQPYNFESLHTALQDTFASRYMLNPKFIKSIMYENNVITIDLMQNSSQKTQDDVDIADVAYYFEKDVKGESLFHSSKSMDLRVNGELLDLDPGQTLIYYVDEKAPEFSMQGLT

mouse EpCAM = biological target: T2, mouse EpCAM (mouse, UniProt Q99JW5 24-266); test: hybridoma screening, ELISA
T2 construct: extracellular domain; also called mouse EpCAM-ECD
T2 sequence (looked up): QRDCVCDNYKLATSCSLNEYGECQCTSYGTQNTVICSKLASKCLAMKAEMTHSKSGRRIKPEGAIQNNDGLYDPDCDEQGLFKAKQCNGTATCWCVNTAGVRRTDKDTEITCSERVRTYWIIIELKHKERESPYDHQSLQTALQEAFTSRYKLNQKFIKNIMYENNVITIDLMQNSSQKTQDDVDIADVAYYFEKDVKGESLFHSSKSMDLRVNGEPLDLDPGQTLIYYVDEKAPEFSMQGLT

B1: antibody of hybridoma clone 12C10F12 (antibody, V domains shown)
VH: QVQLQQSGAELAKPGASVKVSCKASGYTFTSYWMHWVKQRPGQGLEWIGYIRPSTGYTEYNQKFKDKATLTADKSSSTAYMQLSSLTFEDSAVYYCGRGDNWVGFANWGQGTLVTVSA
VL: QIVLTQSPAIMSASLGEEIALTCSASSSISYMHWYQQKSGTSPKLLIYSTSNLASGVPSRFSGSGSGTFYSLTISSVEAEDAADYFCHQWSTYHTFGSGTKLEIK
Rat EpCAM
  binding result: no binding
Mouse EpCAM
  binding result: no binding
